The source of these data is patent US20210292423A1.

For experiment [1], the target named is Macaca fascicularis CD3ε/δ-Fc fusion protein (Macaca fascicularis) (UniProt Q95LI8). The experiment is described as follows: SPR Biacore, ratio against human CD3εδ. On the technique in general: In SPR one partner is held on a chip, and binding of the other changes the refractive index at the surface.
Experiment [2] concerns the target human CD3 (TCR complex) on primary human T cells or Jurkat cells (human) (UniProt P07766). The experiment is described as follows: flow cytometry, Jurkat E6-1. On the technique in general: In flow cytometry, cells or beads pass a laser one at a time.
The target in experiment [3] is Macaca fascicularis CD3 (TCR complex) on cyno HSC-F cells (Macaca fascicularis) (UniProt Q95LI5). The experiment is described as follows: flow cytometry, cyno HSC-F.
The target in experiment [4] is human CD123 (IL3RA) on cells (human) (UniProt P26951). Kind of experiment: cell-based or functional assay.
human CD123 (IL3RA) on cells (human), sequence (P26951 19-378): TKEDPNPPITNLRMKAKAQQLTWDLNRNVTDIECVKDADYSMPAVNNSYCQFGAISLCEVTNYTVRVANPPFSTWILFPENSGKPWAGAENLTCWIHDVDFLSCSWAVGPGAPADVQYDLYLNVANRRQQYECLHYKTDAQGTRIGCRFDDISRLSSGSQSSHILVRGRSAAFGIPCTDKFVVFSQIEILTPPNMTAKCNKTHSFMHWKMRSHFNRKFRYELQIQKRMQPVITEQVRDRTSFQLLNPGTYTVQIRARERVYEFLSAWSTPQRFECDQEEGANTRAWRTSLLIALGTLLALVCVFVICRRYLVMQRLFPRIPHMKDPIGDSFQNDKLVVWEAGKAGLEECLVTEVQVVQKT

human CD3 (TCR complex) on primary human T cells or Jurkat cells (human), sequence (P07766 23-207, one chain of several): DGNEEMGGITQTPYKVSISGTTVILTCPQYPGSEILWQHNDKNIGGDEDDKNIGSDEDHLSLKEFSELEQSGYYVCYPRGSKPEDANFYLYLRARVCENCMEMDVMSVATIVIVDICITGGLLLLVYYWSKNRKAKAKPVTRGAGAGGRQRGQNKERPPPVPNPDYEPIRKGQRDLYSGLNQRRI
CODV-Fab 7G3 × I2C (bispecific antibody), sequence (light, part): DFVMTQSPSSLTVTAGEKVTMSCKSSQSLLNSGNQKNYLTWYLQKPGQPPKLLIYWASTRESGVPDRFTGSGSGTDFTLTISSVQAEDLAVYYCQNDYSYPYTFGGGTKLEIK
CODV-Fab 7G3 × I2C (bispecific antibody), sequence (heavy, part): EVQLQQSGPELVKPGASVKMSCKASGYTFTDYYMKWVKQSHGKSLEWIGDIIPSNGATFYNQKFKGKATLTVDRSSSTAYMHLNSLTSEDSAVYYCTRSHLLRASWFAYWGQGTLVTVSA
Macaca fascicularis CD3ε/δ-Fc fusion protein (Macaca fascicularis), sequence (chain, as listed by the source mutant, chain 1 of 2): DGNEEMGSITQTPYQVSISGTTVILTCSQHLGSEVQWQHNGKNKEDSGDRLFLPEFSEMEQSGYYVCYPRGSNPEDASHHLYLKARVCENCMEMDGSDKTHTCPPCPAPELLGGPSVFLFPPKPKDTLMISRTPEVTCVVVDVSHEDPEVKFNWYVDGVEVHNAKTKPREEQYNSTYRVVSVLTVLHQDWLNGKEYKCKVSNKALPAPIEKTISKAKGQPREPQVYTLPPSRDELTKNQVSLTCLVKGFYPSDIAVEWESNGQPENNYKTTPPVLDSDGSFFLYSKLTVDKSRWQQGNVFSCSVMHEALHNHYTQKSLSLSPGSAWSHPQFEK
Macaca fascicularis CD3ε/δ-Fc fusion protein (Macaca fascicularis), sequence (Q95LI8 22-105, stated change not applied, chain 2 of 2): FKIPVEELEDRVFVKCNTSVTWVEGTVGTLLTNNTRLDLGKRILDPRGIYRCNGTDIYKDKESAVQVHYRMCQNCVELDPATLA
Macaca fascicularis CD3 (TCR complex) on cyno HSC-F cells (Macaca fascicularis), sequence (Q95LI5 22-198, one chain of several): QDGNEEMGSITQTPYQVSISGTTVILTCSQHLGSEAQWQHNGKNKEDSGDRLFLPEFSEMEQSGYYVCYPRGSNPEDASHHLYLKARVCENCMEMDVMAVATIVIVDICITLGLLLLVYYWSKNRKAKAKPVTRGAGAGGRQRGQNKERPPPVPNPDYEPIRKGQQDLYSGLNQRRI

For the substance SP-34 (antibody), in experiment [1], the Ratio KD(cy)/KD(hu) was 5.

Regarding FN18 (antibody), the figures for the geometric mean of relative fluorescence intensity (rfu) in experiment [2] and in experiment [3] were 7 rfu and 1260 rfu, respectively.

“CODV-Fab 7G3 × I2C (bispecific antibody)” displayed an Activity EC50 [ng/ml], cytotoxic assay on THP-1 with human T cells in experiment [4] of 20 ng/mL.
